T1: Cdc24p fused to the GAL4 DNA binding domain (pAS1Cdc24) (S. cerevisiae, UniProt P11433 1-854)
T1 sequence: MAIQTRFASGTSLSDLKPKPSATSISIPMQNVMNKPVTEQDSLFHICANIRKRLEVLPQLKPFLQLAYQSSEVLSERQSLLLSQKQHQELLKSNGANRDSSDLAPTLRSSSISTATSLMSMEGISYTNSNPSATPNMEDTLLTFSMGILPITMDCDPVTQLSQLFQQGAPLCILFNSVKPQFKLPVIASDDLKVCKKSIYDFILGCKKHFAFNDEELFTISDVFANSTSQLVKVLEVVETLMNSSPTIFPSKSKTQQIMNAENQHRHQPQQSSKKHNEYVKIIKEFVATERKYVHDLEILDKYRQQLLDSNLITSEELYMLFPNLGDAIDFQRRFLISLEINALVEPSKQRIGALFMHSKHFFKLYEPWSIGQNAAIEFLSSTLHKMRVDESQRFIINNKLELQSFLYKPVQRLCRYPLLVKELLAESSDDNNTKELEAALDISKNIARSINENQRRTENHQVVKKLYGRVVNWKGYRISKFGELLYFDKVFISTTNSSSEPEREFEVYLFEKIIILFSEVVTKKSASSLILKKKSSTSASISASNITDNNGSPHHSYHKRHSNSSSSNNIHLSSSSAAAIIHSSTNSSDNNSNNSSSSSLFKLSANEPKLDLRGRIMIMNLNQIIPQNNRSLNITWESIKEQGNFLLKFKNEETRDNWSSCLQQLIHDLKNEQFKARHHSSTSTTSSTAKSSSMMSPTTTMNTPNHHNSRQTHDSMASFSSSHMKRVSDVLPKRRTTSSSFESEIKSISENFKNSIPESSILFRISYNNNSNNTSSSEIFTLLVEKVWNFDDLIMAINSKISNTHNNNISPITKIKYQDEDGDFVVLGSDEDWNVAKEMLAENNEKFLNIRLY

T2: MBPFar1 (Far1p residues 133–831 fused to maltose binding protein) (S. cerevisiae, UniProt P21268 133-830)
T2 sequence: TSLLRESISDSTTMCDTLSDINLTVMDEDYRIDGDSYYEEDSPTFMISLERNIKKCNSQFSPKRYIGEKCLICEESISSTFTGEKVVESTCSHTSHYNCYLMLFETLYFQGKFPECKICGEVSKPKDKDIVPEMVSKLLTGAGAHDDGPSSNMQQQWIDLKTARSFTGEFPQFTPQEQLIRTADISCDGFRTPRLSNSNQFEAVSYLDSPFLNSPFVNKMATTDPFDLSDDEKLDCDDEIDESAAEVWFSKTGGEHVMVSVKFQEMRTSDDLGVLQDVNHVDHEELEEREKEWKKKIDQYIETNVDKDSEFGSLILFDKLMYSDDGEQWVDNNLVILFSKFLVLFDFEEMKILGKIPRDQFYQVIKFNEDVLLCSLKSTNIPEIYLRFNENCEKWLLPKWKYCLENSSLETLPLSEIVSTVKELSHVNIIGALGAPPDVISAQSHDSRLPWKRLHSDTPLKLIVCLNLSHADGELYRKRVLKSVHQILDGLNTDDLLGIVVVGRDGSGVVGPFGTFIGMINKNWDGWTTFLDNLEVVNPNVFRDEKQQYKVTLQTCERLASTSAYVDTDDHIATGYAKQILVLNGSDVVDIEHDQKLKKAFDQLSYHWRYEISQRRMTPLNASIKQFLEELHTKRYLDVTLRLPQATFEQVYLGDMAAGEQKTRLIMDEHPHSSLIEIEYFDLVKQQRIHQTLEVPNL


Tests used:
[1] = target: T1, Cdc24p fused to the GAL4 DNA binding …; assay: two-hybrid
[2] = target: T2, MBPFar1 (Far1p residues 133–831 fused …); assay: […]

fold increase in LacZ activity with Gγ overexpressed [1] [fold] | further fold increase in LacZ activity with Far1p also overexpressed [1] [fold] | binding result [2] | Binder
~2 | ~3.5 |  | Ste4p (Gβ) fused to the GAL4 activation domain (pGAD424Ste4) (natural protein) MAAHQMDSITYSNNVTQQYIQPQSLQDISAVEDEIQNKIEAARQESKQLHAQINKAKHKIQDASLFQMANKVTSLTKNKINLKPNIVLKGHNNKISDFRWSRDSKRILSASQDGFMLIWDSASGLKQNAIPLDSQWVLSCAISPSSTLVASAGLNNNCTIYRVSKENRVAQNVASIFKGHTCYISDIEFTDNAHILTASGDMTCALWDIPKAKRVREYSDHLGDVLALAIPEEPNSENSSNTFASCGSDGYTYIWDSRSPSAVQSFYVNDSDINALRFFKDGMSIVAGSDNGAINMYDLRSDCSIATFSLFRGYEERTPTPTYMAANMEYNTAQSPQTLKSTSSSYLDNQGVVSLDFSASGRLMYSCYTDIGCVVWDVLKGEIVGKLEGHGGRVTGVRSSPDGLAVCTGSWDSTMKIWSPGYQ
 |  | binds | GSTCdc24 (NH2-terminal 472 amino acids of Cdc24p fused to GST) (domain or fragment) MAIQTRFASGTSLSDLKPKPSATSISIPMQNVMNKPVTEQDSLFHICANIRKRLEVLPQLKPFLQLAYQSSEVLSERQSLLLSQKQHQELLKSNGANRDSSDLAPTLRSSSISTATSLMSMEGISYTNSNPSATPNMEDTLLTFSMGILPITMDCDPVTQLSQLFQQGAPLCILFNSVKPQFKLPVIASDDLKVCKKSIYDFILGCKKHFAFNDEELFTISDVFANSTSQLVKVLEVVETLMNSSPTIFPSKSKTQQIMNAENQHRHQPQQSSKKHNEYVKIIKEFVATERKYVHDLEILDKYRQQLLDSNLITSEELYMLFPNLGDAIDFQRRFLISLEINALVEPSKQRIGALFMHSKHFFKLYEPWSIGQNAAIEFLSSTLHKMRVDESQRFIINNKLELQSFLYKPVQRLCRYPLLVKELLAESSDDNNTKELEAALDISKNIARSINENQRRTENHQVVKKLYGRVV

Source: paper PMC2150586 (The Journal of Cell Biology, 1999)
